Measurements reported in paper PMC10724265 (2023).
Where no end group is shown, it is not given here.

Tests used:
LC3B [1] = molecular target: T1, LC3B (UniProt Q9GZQ8 1-120); test: ITC
LC3B [2] = molecular target: T1, LC3B; test: ITC; phosphorylated LIR peptide

Kd (LC3B [1]) [nM] | Kd (LC3B [2]) [nM] | Binder
1030 | – | LDTDAEGDDFELLDQSELSQ (synthetic peptide, non-phosphorylated; the exact peptide limits are not printed in the text (figure/supplement); limits taken as the UniProt LIR motif 445-450 plus 7 flanking residues on each side; terminal chemistry unknown) [synthetic FAM134C-LIR peptide, non-phosphorylated form]
– | 180 | LDTDAEGDDFELLDQSELSQ (also: phosphorylated close to the LIR motif, residues not given here) [synthetic FAM134C-LIR peptide, phosphorylated form]
